Biological target: T1, CXCR4 (Homo sapiens, UniProt P61073)
T1 construct: homing of human CD34+ enriched MPB cells to the liver of NOD/SCID mice; endogenous in cells; host or cells: CD34+ enriched mobilized peripheral blood cells, thawed and incubated overnight with SLF, transplanted into non-irradiated NOD/SCID mice
Assay: Homing of human CD34+ enriched MPB cells to the liver of non-irradiated NOD/SCID mice, SDF-1 injected into the liver
Type: in vivo
Conditions: for homing of human stem cells and progenitor cells to the liver (in words): SDF-1 injected into the liver
Protocol: The following experiment was carried out in order to test whether homing of human CD34+ enriched MPB cells to the liver of NOD/SCID mice requires high concentrations of human SDF-1 in the liver.
Frozen […] mobilized peripheral blood (MPB) CD34+ cells were thawed, and incubated at 37° C. over night with 50 ng/ml SLF for recovery. In contrast to the experiment described in example 1, this experiment was carried out with non irradiated mice (not pre-conditioned) and also in non-irradiated mice in which human SDF-1 has been injected directly into the liver immediately prior transplantation. Briefly, non-irradiated NOD/SCID mice were anaesthetized and 1 microgram SDF-1 (in 50 microliter PBS) were injected into the right lobe of the liver. Next, treated and control mice were transplanted intravenously with 8×10^5 CD34+ MPB enriched cells. In one group, CD34+ cells were incubated for 30 min. (4° C.) with 10 micrograms of neutralizing anti-human CXCR4 mAb (12G5), and co-transplanted without washing. Four hours later, the injected lobe was harvested, a single cell suspension was prepared and introduced to flow cytometry analysis, using human specific anti CD34-FITC and anti CD38-PE mAb. Injection of SDF-1 to the liver creates a positive gradient in the liver and a negative gradient in the blood. Since this gradient is maintained for about 4 hours only, therefore the mice were sacrificed and homing was tested rapidly, four hours after cell injection.

T1 sequence (P61073 whole entry): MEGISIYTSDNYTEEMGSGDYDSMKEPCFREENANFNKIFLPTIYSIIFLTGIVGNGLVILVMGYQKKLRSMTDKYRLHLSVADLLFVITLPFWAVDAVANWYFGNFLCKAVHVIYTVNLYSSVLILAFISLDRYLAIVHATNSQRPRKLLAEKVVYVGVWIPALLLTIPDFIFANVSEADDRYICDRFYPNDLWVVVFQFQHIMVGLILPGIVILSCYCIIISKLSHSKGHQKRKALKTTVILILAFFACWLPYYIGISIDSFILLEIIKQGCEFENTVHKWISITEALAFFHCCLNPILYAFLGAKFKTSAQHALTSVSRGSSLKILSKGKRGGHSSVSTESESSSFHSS

Q: “SDF-1: human SDF-1, CXC chemokine and ligand of CXCR4, injected directly into the liver” was tested. Which “Number of human cells in the liver per 1 × 10^6 total aquired cells” value (1 microgram SDF-1 into right liver lobe, 8×10^5 CD34+ MPB cells IV, 12G5 10 micrograms, four hours, flow cytometry) did it give?
A: 38

Q: What about the “% (number of human cells in the liver, SDF-1 group = 100)” value (1 microgram SDF-1 into right liver lobe, four hours after cell injection) of the same substance?
A: 100%

Q: What about the “homing of human stem cells and progenitor cells to the liver (in words)” value (four hours after cell injection) of the same substance?
A: improves significantly

Q: And the “homing of human stem cells and progenitor cells to the liver (in words)” value (four hours after cell injection, listed as human SDF-1)?
A: a considerable number of human stem cells and progenitor cells were observed
